Measurements: article PMC2836074 (The Journal of Biological Chemistry, 2009)

Experiments:
EGFP-F1LΔBH1 = EGFP-F1LΔBH1 (vaccinia virus strain Copenhagen, UniProt P68450 1-226, lacks amino acids 144–156); experiment: co-IP
EGFP-F1LΔBH3 = EGFP-F1LΔBH3 (vaccinia virus strain Copenhagen, UniProt P68450 1-226, lacks amino acids 93–108); experiment: co-IP

B1: HA-Bak (natural protein)
chain: MASGQGPGPPRQECGEPALPSASEEQVAQDTEEVFRSYVFYRHQQEQEAEGVAAPADPEMVTLPLQPSSTMGQVGRQLAIIGDDINRRYDSEFQTMLQHLQPTAENAYEYFTKIATSLFESGINWGRVVALLGFGYRLALHVYQHGLTGFLGQVTRFVVDFMLHHCIARWIAQRGGWVAALNLGNGPILNVLVVLGVVLLGQFVVRRFFKS
fold decrease in Bak binding compared with wild-type F1L (EGFP-F1LΔBH1): 8 fold | fold decrease in Bak binding compared with wild-type F1L (EGFP-F1LΔBH3): 3 fold
